# Assays:
# [1] = target: Human Epidermal Growth Factor Receptor 2 (human (endogenous in SKOV-3)) (UniProt P04626); assay: flow cytometry on cells
# [2] = target: encapsulin (MSMEI_5672) from Mycobacterium smegmatis mc^2155 with C-terminal Strep-tag (Mycobacterium smegmatis mc^2155); assay: AF4-MALS
substance,measurement,setting,value
"^ZHEREnc{eGFP}: encapsulin nanocompartment with ZHER_(2:342) affibody-decorated shell, loaded with eGFP (complex)",fold MFI elevation,[1],62 fold
tandem cytosine deaminase with C-terminal encapsulin localization sequence (enzyme),stoichiometry N (tdCD molecules per nanocompartment),[2],18.7
eGFP with C-terminal encapsulin localization sequence,stoichiometry N (eGFP molecules per nanocompartment),[2],17

# — publication doi:10.1101/2025.09.11.675605
